From patent US20240158499A1 (Janssen / Centocor, published 2024)

Tests used:
[1] = target: T1, extracellular domain (ECD) of human CD79B isoform 1, CD9W7 (human); experiment: SPR; hCD79B-long
T1 construct: It also carries C-terminal tag residues ending in a 6xHis tag; also called CD79b long isoform; hCD79B-long
T1 chain: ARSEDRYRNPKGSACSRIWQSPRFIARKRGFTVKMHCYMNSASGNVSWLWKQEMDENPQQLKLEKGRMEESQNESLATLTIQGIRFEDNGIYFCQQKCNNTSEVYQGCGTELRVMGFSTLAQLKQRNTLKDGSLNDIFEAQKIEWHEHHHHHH

[2] = target: T2, extracellular domain (ECD) of human CD79B isoform 2, CD9W8 (human); experiment: SPR; hCD79B-short
T2 construct: It also carries C-terminal tag residues ending in a 6xHis tag; also called CD79b short isoform; hCD79B-short
T2 chain: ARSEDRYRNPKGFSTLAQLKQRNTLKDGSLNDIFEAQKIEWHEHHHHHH

Kd [1]: 0.78 nM | Kd [2]: 2.21 nM
B1: CD9B1256 (antibody, V domains shown)
VH: EVQLVESGPGLVEPSETLSLTCTVSGGSISSYYWSWIRQPAGKGLEWIGRIYSSGSTNYNPSLKSRVTMSVDTSENQFSLNLNSVTAADTAKYYCARGEYSGDLGGYGLDVWGQGTMVTVSS
VL: EIVMTQSPLSLSVTPGEPASISCRSSQSLLDSDDGNTYLDWYLQKPGQSPQLLIQTLSYRASGVPDRFSGRGSGTDFTLKISRVEAEDVGIYYCMQRMEFPLTFGGGTKVDIKR
notes: also called VR000056263
